From US20130330346A1 (Novartis, published 2013)

T1: Cynomolgus CXCR2 (cynomolgus, UniProt Q28519 3-353 (rhesus entry))
T1 chain: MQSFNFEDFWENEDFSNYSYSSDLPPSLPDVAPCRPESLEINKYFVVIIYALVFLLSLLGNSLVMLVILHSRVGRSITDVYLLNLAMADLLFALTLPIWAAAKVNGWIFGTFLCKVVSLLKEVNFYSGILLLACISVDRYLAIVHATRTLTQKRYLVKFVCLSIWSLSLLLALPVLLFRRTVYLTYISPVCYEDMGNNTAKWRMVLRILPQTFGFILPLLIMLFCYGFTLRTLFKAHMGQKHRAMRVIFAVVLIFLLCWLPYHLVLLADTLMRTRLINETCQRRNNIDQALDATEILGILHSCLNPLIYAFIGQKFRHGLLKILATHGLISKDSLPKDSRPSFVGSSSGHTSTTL

T2: Human CXCR2 (human, UniProt P25025 1-360)
T2 sequence: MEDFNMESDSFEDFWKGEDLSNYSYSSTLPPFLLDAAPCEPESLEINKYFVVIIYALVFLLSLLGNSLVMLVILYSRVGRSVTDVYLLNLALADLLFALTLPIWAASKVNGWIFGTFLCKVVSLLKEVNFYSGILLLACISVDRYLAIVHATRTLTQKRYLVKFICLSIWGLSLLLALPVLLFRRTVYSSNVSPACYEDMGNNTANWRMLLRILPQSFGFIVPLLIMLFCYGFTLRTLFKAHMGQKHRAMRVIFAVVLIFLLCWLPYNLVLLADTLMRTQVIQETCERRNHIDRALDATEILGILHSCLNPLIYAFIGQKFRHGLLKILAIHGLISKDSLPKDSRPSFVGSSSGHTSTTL


Key:
Cynomolgus CXCR2 [1] = molecular target: T1, Cynomolgus CXCR2; assay: cell-based or functional assay
Human CXCR2 [2] = molecular target: T2, Human CXCR2; assay: cell-based or functional assay
Cynomolgus CXCR2 [3] = molecular target: T1, Cynomolgus CXCR2; assay: FACS competition vs 3 nM FMAT-Blue Gro-α
Description: (§1) Multivalent anti-CXCR2Nanobodies were titrated against 3 nM FMAT-Blue-labeled Gro-α in the FACS ligand competition assay on human and cynomolgus CXCR2 (Table 14). On human CXCR2, blocking potencies range between double digit nM and sub-nM whereas on cynomolgus CXCR2, they range between single and double digit nM.

Human CXCR2 [4] = molecular target: T2, Human CXCR2; assay: FACS competition vs 3 nM FMAT-Blue Gro-α
Description: as §1

Binder	FLIPR % inhibition of max (Cynomolgus CXCR2 [1]) [%]	FLIPR IC50 (GRO-α induced calcium release) (Cynomolgus CXCR2 [1]) [nM]	FLIPR % inhibition of max (Human CXCR2 [2]) [%]	FLIPR IC50 (GRO-α induced calcium release) (Human CXCR2 [2]) [nM]	% inhibition of max (Cynomolgus CXCR2 [3]) [%]	IC50 (Cynomolgus CXCR2 [3]) [nM]	% inhibition of max (Human CXCR2 [4]) [%]	IC50 (Human CXCR2 [4]) [nM]
CXCR20027 (bispecific antibody, Two different VHH joined by a GlySer linker; also called 163E3-35GS-163D2; not shown: C-terminal c-myc tag and His6 tag coded by pAX100) EVQLVESGGGLVQPGGSLRLSCVASGRIFSSNAMGWFRQAPGKEREFVAAITWRSGGSAYYADSAKGRFTISRDNAKNTVYLQMNSLKPEDTAVYYCAAGGSSWLSFPPDYWGQGTQVTVSSGGGGSGGGGSGGGGSGGGGSGGGGSGGGGSGGGGSEVQLVESGGGLVQAGGSLRLSCAASGRTFSDYAMGWFRQAPGKEREFVAAITWNGGRVFYTASVKGRFTISRDNAKNTMYLQMNSLKPEDTAVYYCAADKDRRTDYLGHPVAYWGQGTQVTVSS	100	12.7	100	17.8	97	6.42	100	4.9
CXCR20029 (other, Biparatopic: two VHH joined by a GlySer linker; also called 163E3-35GS-54B12; not shown: C-terminal c-myc tag and His6 tag coded by pAX100) EVQLVESGGGLVQPGGSLRLSCVASGRIFSSNAMGWFRQAPGKEREFVAAITWRSGGSAYYADSAKGRFTISRDNAKNTVYLQMNSLKPEDTAVYYCAAGGSSWLSFPPDYWGQGTQVTVSSGGGGSGGGGSGGGGSGGGGSGGGGSGGGGSGGGGSEVQLVESGGGLVQAGGSLTLSCAVSGSTFRINTMGWYRRAPGKQRELVAARDRGGYINYVDSVKGRFTVSRDNAKPTMYLQMNSLKPEDTAVYYCHAGTQDRTGRNFDRWGQGTQVTVSS	100	10.1	100	17.1	98.5	2.09	98.5	1.13
CXCR20036 (other, Biparatopic: two VHH joined by a GlySer linker; also called 54B12-35GS-163D2; 54B12-163D2; not shown: C-terminal c-myc tag and His6 tag coded by pAX100) EVQLVESGGGLVQAGGSLTLSCAVSGSTFRINTMGWYRRAPGKQRELVAARDRGGYINYVDSVKGRFTVSRDNAKPTMYLQMNSLKPEDTAVYYCHAGTQDRTGRNFDRWGQGTQVTVSSGGGGSGGGGSGGGGSGGGGSGGGGSGGGGSGGGGSEVQLVESGGGLVQAGGSLRLSCAASGRTFSDYAMGWFRQAPGKEREFVAAITWNGGRVFYTASVKGRFTISRDNAKNTMYLQMNSLKPEDTAVYYCAADKDRRTDYLGHPVAYWGQGTQVTVSS	100	4.27	100	7.86	98	2.27	98	0.7
CXCR20011 (VHH, Bivalent: two VHH joined by a GlySer linker; also called 97A9-35GS-97A9; not shown: C-terminal c-myc tag and His6 tag coded by pAX100) EVQLVESGGGLVQPGGSLRLSCVASGSIVRINTMGWYRQTPGKQRELVADITSGGNINYIDAVKGRFTISRDNTKNTVYLQMNSLKPEDTAVYYCNAEIVVLVGVWTQRARTGNYWGQGTQVTVSSGGGGSGGGGSGGGGSGGGGSGGGGSGGGGSGGGGSEVQLVESGGGLVQPGGSLRLSCVASGSIVRINTMGWYRQTPGKQRELVADITSGGNINYIDAVKGRFTISRDNTKNTVYLQMNSLKPEDTAVYYCNAEIVVLVGVWTQRARTGNYWGQGTQVTVSS	–	–	100	137	60	97.4	99	35.2
CXCR20013 (bispecific antibody, Biparatopic: two VHH joined by a GlySer linker; also called 2B2-35GS-97A9; not shown: C-terminal c-myc tag and His6 tag coded by pAX100) EVQLVESGGELVQPGGSLRLSCAASGSILTINAMGWYRQAPGKQRELVVRRTRGGSTTYQDSVKGRFTISADIAKKTMYLQMNSLKPEDTAVYYCMLDDRGGVYWGQGTQVTVSSGGGGSGGGGSGGGGSGGGGSGGGGSGGGGSGGGGSEVQLVESGGGLVQPGGSLRLSCVASGSIVRINTMGWYRQTPGKQRELVADITSGGNINYIDAVKGRFTISRDNTKNTVYLQMNSLKPEDTAVYYCNAEIVVLVGVWTQRARTGNYWGQGTQVTVSS	100	29.2	100	2.93	98.5	4.2	90	0.9
CXCR20015 (other, Two different VHH joined by a GlySer linker; also called 2B2-35GS-137B7; not shown: C-terminal c-myc tag and His6 tag coded by pAX100) EVQLVESGGELVQPGGSLRLSCAASGSILTINAMGWYRQAPGKQRELVVRRTRGGSTTYQDSVKGRFTISADIAKKTMYLQMNSLKPEDTAVYYCMLDDRGGVYWGQGTQVTVSSGGGGSGGGGSGGGGSGGGGSGGGGSGGGGSGGGGSEVQLVESGGGLVQPGGSVRLSCVASGIIFRLSALGWTRQGPGKAREWVAGINSDGTTNYADPVKGRFTISRDNAKNTIYLHMDMLKPEDTAVYYCASGKYRGQGTQVTVSS	100	2870	100	2.78	81.5	99	99	0.7
CXCR20016 (other, Two different VHH joined by a GlySer linker; also called 137B7-35GS-2B2; not shown: C-terminal c-myc tag and His6 tag coded by pAX100) EVQLVESGGGLVQPGGSVRLSCVASGIIFRLSALGWTRQGPGKAREWVAGINSDGTTNYADPVKGRFTISRDNAKNTIYLHMDMLKPEDTAVYYCASGKYRGQGTQVTVSSGGGGSGGGGSGGGGSGGGGSGGGGSGGGGSGGGGSEVQLVESGGELVQPGGSLRLSCAASGSILTINAMGWYRQAPGKQRELVVRRTRGGSTTYQDSVKGRFTISADIAKKTMYLQMNSLKPEDTAVYYCMLDDRGGVYWGQGTQVTVSS	100	1100	100	2.36	88	5.7	100	0.8
CXCR20017 (other, Two different VHH joined by a GlySer linker; also called 97A9-35GS-137B7; not shown: C-terminal c-myc tag and His6 tag coded by pAX100) EVQLVESGGGLVQPGGSLRLSCVASGSIVRINTMGWYRQTPGKQRELVADITSGGNINYIDAVKGRFTISRDNTKNTVYLQMNSLKPEDTAVYYCNAEIVVLVGVWTQRARTGNYWGQGTQVTVSSGGGGSGGGGSGGGGSGGGGSGGGGSGGGGSGGGGSEVQLVESGGGLVQPGGSVRLSCVASGIIFRLSALGWTRQGPGKAREWVAGINSDGTTNYADPVKGRFTISRDNAKNTIYLHMDMLKPEDTAVYYCASGKYRGQGTQVTVSS	100	1080	100	22.9	73	29.5	99	3.4
CXCR20019 (VHH, Bivalent: two VHH joined by a 9GS linker; also called 2B2-9GS-2B2; not shown: C-terminal c-myc tag and His6 tag coded by pAX100) EVQLVESGGELVQPGGSLRLSCAASGSILTINAMGWYRQAPGKQRELVVRRTRGGSTTYQDSVKGRFTISADIAKKTMYLQMNSLKPEDTAVYYCMLDDRGGVYWGQGTQVTVSSGGGGSGGGSEVQLVESGGELVQPGGSLRLSCAASGSILTINAMGWYRQAPGKQRELVVRRTRGGSTTYQDSVKGRFTISADIAKKTMYLQMNSLKPEDTAVYYCMLDDRGGVYWGQGTQVTVSS	–	–	–	–	81	1.8	50.6	0.044
CXCR20012 (other, Bivalent: two VHH joined by a GlySer linker; also called 137B7-35GS-137B7; not shown: C-terminal c-myc tag and His6 tag coded by pAX100) EVQLVESGGGLVQPGGSVRLSCVASGIIFRLSALGWTRQGPGKAREWVAGINSDGTTNYADPVKGRFTISRDNAKNTIYLHMDMLKPEDTAVYYCASGKYRGQGTQVTVSSGGGGSGGGGSGGGGSGGGGSGGGGSGGGGSGGGGSEVQLVESGGGLVQPGGSVRLSCVASGIIFRLSALGWTRQGPGKAREWVAGINSDGTTNYADPVKGRFTISRDNAKNTIYLHMDMLKPEDTAVYYCASGKYRGQGTQVTVSS	–	–	–	–	–	–	99.1	0.606
CXCR20018 (other, Two different VHH joined by a GlySer linker; also called 137B7-35GS-97A9; not shown: C-terminal c-myc tag and His6 tag coded by pAX100) EVQLVESGGGLVQPGGSVRLSCVASGIIFRLSALGWTRQGPGKAREWVAGINSDGTTNYADPVKGRFTISRDNAKNTIYLHMDMLKPEDTAVYYCASGKYRGQGTQVTVSSGGGGSGGGGSGGGGSGGGGSGGGGSGGGGSGGGGSEVQLVESGGGLVQPGGSLRLSCVASGSIVRINTMGWYRQTPGKQRELVADITSGGNINYIDAVKGRFTISRDNTKNTVYLQMNSLKPEDTAVYYCNAEIVVLVGVWTQRARTGNYWGQGTQVTVSS	–	–	–	–	47	50.8	98	1.9
